According to paper PMC6697466, “Interaction Between the a3 Region of Factor VIII and the TIL’E’ Domains of the von Willebrand Factor” (Biophysical Journal, 2019):
“And” between values parts separate entries of the source, which are not always exact repeats. Identical values can stand only once. “Also recorded” adds a separate entry of the source. Square brackets hold non-standard residues; d marks the D form. Ends that are not written are not given here. sY = N[C@@H](Cc1ccc(OS(=O)(=O)O)cc1)C(=O)O

What was measured:
VWF TIL’E’ R816W = test: NMR 15N-1H HSQC of VWF TIL’E’ R816W with FVIII a3sTyr1664-sTyr1680; assay type: binding; settings: five molar excess of peptide, 298 K
Description: All NMR spectra were recorded at 298 K on Bruker Avance III 700 MHz or Bruker Avance III HD 800 MHz spectrometers equipped with cryoprobes. NMR samples consisted of 10–300 μM isotope labeled TIL’E’ in 10 mM HEPES 300 mM NaCl 5 mM CaCl2 5% D2O pH 7.3.
Two-dimensional ^15N-^1H heteronuclear single quantum correlation (HSQC) spectra ([39]) were recorded with 3-9-19 Watergate, whereas two-dimensional methyl–transverse relaxation optimized spectroscopy (TROSY) experiments were recorded using the standard heteronuclear multiple quantum coherence pulse scheme ([40]).
Arg816 is located in the VWF TIL’ β3-β4 sheet ([31]), where the largest chemical shift changes were observed (Figs. 2 and 3). […] However, the most affected residues are located far from each other on the three-dimensional structure of VWF TIL’E’.

TIL’E’ = test: ITC of FVIII a3 peptides with TIL’E’; assay type: binding; settings: 25°C, higher concentrations not feasible due to solubility
Description: (§1) ITC experiments were performed on a MicroCal iTC200 (Malvern Instruments, Malvern, UK) at 25°C. All experiments were performed with a total of 19 injections (the first injection 0.4 μL, the rest 2 μL), with 120 s between each injection and an initial delay of 60 s. The reference power was set to 6 μcal/s, and the syringe was stirred at 750 or 1000 Rpm depending on the specifications of the syringe. The concentrations of proteins used are specified in the figure legends.

[1] = biological target: B-domain deleted FVIII (N8, turoctocog alfa) (UniProt P00451); test: ITC; MicroCal iTC200, 25 °C, 19 injections (first 0.4 uL, the rest 2 uL), 120 s between injections; who was in the syringe and the concentrations not given
FVIII [2] = settings: full-length VWF R816W; cited from earlier work
Description: Arg816 is located in the VWF TIL’ β3-β4 sheet ([31]), where the largest chemical shift changes were observed (Figs. 2 and 3).

FVIII [3] = test: ITC of VWF TIL’E’ constructs and mutants with FVIII; assay type: binding; settings: 25°C; for N: ITC stoichiometry
Description: as §1

[4] = biological target: T1, VWF TIL’E’ (construct 1, residues 764–865 of VWF) (UniProt P04275 764-865); test: NMR titration; 15N-1H HSQC of 100 uM 15N-labelled VWF TIL’E’ free and with ~500 uM (five molar excess) unlabelled FVIII a3 peptide; 298 K; 10 mM HEPES 300 mM NaCl 5 mM CaCl2 5% D2O pH 7.3; saturation not reached, upper bound of Kd from chemical shift changes; settings: both partners purified
T1 construct: von Willebrand factor, TIL’E’ domains, residues 764-865; mature VWF starts at Ser764; enterokinase site GTDDDDK immediately before residue 764; every result printed for plain 'VWF TIL’E’' is written on this molecule; Uniformly 15N-labelled or ILV-13CH3/2H-labelled in the NMR experiments; also called wild-type VWF TIL’E’; source: thioredoxin and His6 tag cut off with enterokinase; not shown: …

[5] = ITC, three independent ITC experiments

Q: Which results are given for `CC[C@H](C)[C@H](NC(=O)[C@H](CC(=O)O)NC(=O)[C@H](Cc1ccccc1)NC(=O)[C@H](CC(=O)O)NC(=O)[C@H](CCC(=O)O)NC(=O)[C@H](CCCCN)NC(=O)[C@H](CCCCN)NC(=O)[C@H](CCSC)NC(=O)[C@H](CCC(=O)O)NC(=O)[C@@H](NC(=O)[C@H](CO)NC(=O)[C@@H](NC(=O)[C@@H](NC(=O)[C@H](CC(=O)O)NC(=O)[C@H](CC(=O)O)NC(=O)[C@H](Cc1ccc(OS(=O)(=O)O)cc1)NC(=O)[C@H](CC(=O)O)NC(=O)[C@@H](NC(=O)[C@H](CCC(=O)O)NC(=O)[C@H](CCC(=O)O)NC(=O)[C@H](CCC(N)=O)NC(=O)[C@H](CC(=O)O)NC(=O)[C@H](CO)NC(=O)[C@H](CCC(N)=O)NC(=O)[C@H](CC(C)C)NC(=O)[C@@H](NC(=O)[C@@H](NC(=O)[C@H](CCCNC(=N)N)NC(=O)[C@@H](NC(=O)[C@@H](NC(=O)[C@@H](N)CCC(=O)O)[C@@H](C)CC)[C@@H](C)O)[C@@H](C)O)[C@@H](C)O)[C@@H](C)CC)[C@@H](C)O)[C@@H](C)CC)C(C)C)C(=O)N[C@@H](Cc1ccc(OS(=O)(=O)O)cc1)C(=O)N[C@@H](CC(=O)O)C(=O)N[C@@H](CCC(=O)O)C(=O)N[C@@H](CC(=O)O)C(=O)N[C@@H](CCC(=O)O)C(=O)N[C@@H](CC(N)=O)C(=O)N[C@@H](CCC(N)=O)C(=O)N[C@@H](CO)C(=O)N1CCC[C@H]1C(=O)N[C@@H](CCCNC(=N)N)C(=O)O` [a3sTyr1664-sTyr1680]?
A: effect of R816W on affinity between FVIII a3 and VWF TIL’E’ (VWF TIL’E’ R816W): decreases the affinity; binding to TIL’E’ by ITC (in words) (TIL’E’): no high-affinity binding

Q: Which results are given for “VWF TIL’E’ R854Q (in the construct 1 background) (from UniProt P04275 764-865) (domain or fragment)”?
A: Kd [1]: 7200 nM; dH [1]: -7.5 kcal/mol; stoichiometry N [1]: 1.29

Q: Which results are given for “VWF TIL’E’ (construct 1, residues 764–865 of VWF) (from UniProt P04275 764-865) (domain or fragment)”?
A: Kd [1]: 710 nM; dH [1]: -12 kcal/mol; stoichiometry N [1]: 1

Q: Which “binding to FVIII in ELISA” value (FVIII [2]) does the source give for “VWF R816W: full-length VWF R816W, severe VWD type 2N mutation” here?
A: does not bind FVIII

Q: For “VWF TIL’E’-ALA-HPC4 (construct 3, residues 764–865 with C-terminal HPC4 tag), from E. coli (from UniProt P04275 764-865) (domain or fragment)”, which Kd [1] is on record?
A: 640 nM

Q: For “VWF TIL’E’ R854K (in the construct 1 background) (from UniProt P04275 764-865) (domain or fragment)”, which Kd [1] is on record?
A: 25000 nM

Q: With “VWF TIL’E’-ALA-HPC4 expressed in HKB11 cell line (construct 4) (domain or fragment)” as the molecule, how does the Kd [1] read?
A: 750 nM

B1: VWF TIL’E’: residues 764–865 of VWF; constructs 1 and 3 used interchangeably (protein)
chain: SLSCRPPMVKLVCPADNLRAEGLECTKTCQNYDLECMSMGCVSGCLCPPGMVRHENRCVALERCPCFHQGKEYAPGETVKIGCNTCVCQDRKWNCTDHVCDA
modifications: left off: thioredoxin, N-terminal, cleaved | His6, N-terminal, cleaved
notes: residues 764–865 of VWF; constructs 1 and 3 used interchangeably
Q: What does the source list for B1?
A: N (FVIII [3]; three independent ITC experiments): 1.0 ± 0.3; binding to FVIII by ITC (in words) (FVIII [3]; ITC): micromolar interaction; Kd (FVIII [3]; [5]): 0.7 µM and 0.71 µM; ΔH (FVIII [3]; [5]): -12.0 ± 1.3 kcal/mol

B2: VWF R816W TIL’E’: VWD type 2N mutation R816W introduced into the construct 3 background (protein)
chain: SLSCRPPMVKLVCPADNLRAEGLECTKTCQNYDLECMSMGCVSGCLCPPGMVWHENRCVALERCPCFHQGKEYAPGETVKIGCNTCVCQDRKWNCTDHVCDA
modifications: left off: His6, N-terminal, cleaved | DsbC, N-terminal, cleaved | HPC4 (…: ALA linker and …), C-terminal, state not stated
notes: VWD type 2N mutation R816W introduced into the construct 3 background
Q: With B2 as the molecule, how does the “binding to FVIII by ITC (in words)” value (FVIII [3]; ITC, listed as VWF TIL’E R816W) read?
A: no binding was observed

B3: R854K: mutation R854K introduced into the construct 1 background (protein)
chain: SLSCRPPMVKLVCPADNLRAEGLECTKTCQNYDLECMSMGCVSGCLCPPGMVRHENRCVALERCPCFHQGKEYAPGETVKIGCNTCVCQDKKWNCTDHVCDA
modifications: left off: thioredoxin, N-terminal, cleaved | His6, N-terminal, cleaved
notes: mutation R854K introduced into the construct 1 background
Q: With B3 as the molecule, how does the Kd (FVIII [3]; ITC, n not given) read?
A: 25 ± 20 µM

B4: VWF R854Q TIL’E’: VWD type 2N mutation R854Q introduced into the construct 1 background (protein)
chain: SLSCRPPMVKLVCPADNLRAEGLECTKTCQNYDLECMSMGCVSGCLCPPGMVRHENRCVALERCPCFHQGKEYAPGETVKIGCNTCVCQDQKWNCTDHVCDA
modifications: left off: thioredoxin, N-terminal, cleaved | His6, N-terminal, cleaved
notes: VWD type 2N mutation R854Q introduced into the construct 1 background
Q: What does the source list for B4?
A: N (FVIII [3]; one run): 1.29 ± 0.03; binding to FVIII by ITC (in words) (FVIII [3]; ITC): Weak binding; increase in Kd compared to the wild-type (FVIII [3]; ITC): about an order of magnitude; Kd (FVIII [3]; ITC, one run): 7.2 ± 0.6 µM; ΔH (FVIII [3]; ITC, one run): -7.5 ± 0.2 kcal/mol

Q: For EITRTTLQSDQEEID[sY]DDTISVEMKKEDFDI[sY]DEDENQSPR [FVIII a3 peptide a3_(sTyr1664-sTyr1680) (residues 1649–1689, Tyr1664 and Tyr1680 sulfated)], which Kd [4] is on record?
A: < 25 mM

B5: VWF GAMG-TIL’E’: four amino acids GAMG followed by residues 766–864 of VWF (protein)
chain: GAMGSCRPPMVKLVCPADNLRAEGLECTKTCQNYDLECMSMGCVSGCLCPPGMVRHENRCVALERCPCFHQGKEYAPGETVKIGCNTCVCQDRKWNCTDHVCD
Q: For B5, which “binding to FVIII by ITC (in words)” value (FVIII [3]; ITC) is on record?
A: substantially reduced binding; also recorded: the binding to FVIII had been abrogated; also recorded: unable to bind FVIII with micromolar affinity
